Columns and labels:
BSA = molecular target: T1, BSA (Bos taurus, UniProt P02769); experiment: phage ELISA, BSA coated, anti-M13-HRP, Abs. 492 nm
T1 construct: also called bovine serum albumin

[1] = molecular target: T2, toxin Cll1 from Centruroides limpidus limpidus (Centruroides limpidus limpidus, UniProt P45667 1-66); experiment: phage ELISA, Cll1 coated at 3 µg/ml, anti-M13-HRP, Abs. 492 nm
T2 sequence: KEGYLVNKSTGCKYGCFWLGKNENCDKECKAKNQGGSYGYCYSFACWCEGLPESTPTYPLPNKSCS

[2] = molecular target: toxin Cll2 from Centruroides limpidus limpidus (Centruroides limpidus limpidus, UniProt P59898 1-66); experiment: phage ELISA, Cll2 coated at 3 µg/ml, anti-M13-HRP, Abs. 492 nm
[3] = molecular target: T3, toxin Cn2 from Centruroides noxius Hoffmann scorpion venom (Centruroides noxius Hoffmann, UniProt P01495 17-82); experiment: SPR (Biacore), Cn2 immobilised, soluble scFv injected
T3 construct: mature; also called Cn2 toxin; formerly 11-9.2.2

B1: scFv 3F (scFv)
scFv: EVQLVESGGGLVQPGGSLRLSCAGSGFTFDNYAMHWIRQVPGEGLEWVSGISRSSGDIGYADSVKGRFTISRDNAKKSLSLQMNSLRAEDTAVYYCARGGVGSFDTWGQGTMVTVSSGGGGSGGGGSGGGGSEIVLTQSPATLSVSPGERATLSCRASQSVRSYLAWYQQKPGQAPRLLISDASNRATGIPARFTGSGSGTDFTLTISSLEPEDFAIYYCQQYRYSPRTFGQGTKVEIKR
notes: also called clone 3F; phage-antibody 3F
B1: no binding (tested: 1x10^11 phages/ml) (BSA); no binding (tested: 1x10^11 phages/ml) [1]; no binding (tested: 1x10^11 phages/ml) [2].

B2: scFv C1 (scFv)
scFv: QVNLRESGGGLVQPGGSLRLSCAASGFSFGSYGMHWVRQAPGKGLEWVAVISYDGSNKYYADSVKGRFTISRDNSKNTLYLQMNSLRAEDTAVYYCAKDARDCLMCADWYFDLWGRGTLVTVSSGGGGSGGGGSGGGGSNFMLTQPHSASGTPGQRVTISCSGSSSNIGSNTVNWYRHLPGSAPELLIGSHNQRPSGVPDRFSASKSDTSASLAISGLQSEDEADYYCAAWDDSLIGYVFGTGTKLTVLG
notes: also called clone C1; phage-antibody C1
B2 gave a Kd [3] of 540 nM, a koff [3] of 0.014 s⁻¹ and a kon [3] of 20000 M⁻¹ s⁻¹. B2: no binding (tested: 1x10^11 phages/ml) (BSA); no binding (tested: 1x10^11 phages/ml) [1]; no binding (tested: 1x10^11 phages/ml) [2].
